Assay results published in a protein production outcome set (Wang et al. 2014).

Test: label from the status in PepcDB records

Row | Sequence | protein production
1 | MTTLYANVYLLSTPQGRLLLDTGTVNHAPAFARLLRSFDPDAVVVTHSHIDHAGNAFLAARLGYPVLAHPLEHDRLLGHDLSMPYPAGQPGVGRLVSRLHPRPGAERLGALYPGDTVRGWEVVHLPGHTDGQIGLQRDGVLLAADAVLSHPRTGAHLPREGYNWDHAVALQTLKKVADLDLHTVLPGHGRALDMAQVRARAVRDDEPGDRAEDAA | failed
2 | MGYPPPTRRLGDKKRYHYSNNPNRRHPSAVYSKNSFPKSSNNGFVSSPTADNSTNPSVTPSTASVPLPTAAPGSTFGIEAPRPSRYDPSSVSRPSSSSYSSTRKIGSRYNPDVERSSSTTSSTPESMNTSTITHTNTDIGNSRYSRKTMSRYNPQSTSSTNVTHFPSALSNAPPFYVANGSSRRPRSMDDYSPDVTNKLETNNVSSVNNNSPHSYYSRSNKWRSIGTPSRPPFDNHVGNMTTTSNTNSIHQREPFWKANSTTILKSTHSQSSPSLHTKKFHDANKLDKPEASVKVETPSKDETKAISYHDNNFPPRKSVSKPNAPLEPDNIKVGEEDALGKKEVHKSGREIAKEHPTPVKMKEHDELEARAKKVSKINIDGKQDEIWTTAKTVASAVEVSKESQKELTRSVERKESPEIRDYERAYDPKALKTDVTKLTVDNDNKSYEEPLEKVEGCIFPLPKAETRLWELKNQKRNKIISEQKYLLKKAIRNFSEYPFYAQNKLIHQQATGLILTKIISKIKKEEHLKKINLKHDYFDLQKKYEKECEILTKLSENLRKEEIENKRKEHELMEQKRREEGIETEKEKSLRHPSSSSSSRRRNRADFVDDAEMENVLLQIDPNYKHYQAAATIPPLILDPIRKHSYKFCDVNNLVTDKKLWASRILKDASDNFTDHEHSLFLEGYLIHPKKFGKISHYMGGLRSPEECVLHYYRTKKTVNYKQLLIDKNKKRKMSAAAKRRKRKERSNDEEVEVDESKEESTNTIEKEEKSENNAEENVQPVLVQGSEVKGDPLGTPEKVENMIEQRGEEFAGELENAERVNDLKRAHDEVGEESNKSSVIETNNGVQIMDPKGAVQNGYYPEETKELDFSLENALQRKKHKSAPEHKTSYWSVRESQLFPELLKEFGSQWSLISEKLGTKSTTMVRNYYQRNAARNGWKLLVDETDLKRDGTSSESVQQSQILIQPERPNINAYSNIPPQQRPALGYFVGQPTHGHNTSISSIDGSIRPFGPDFHRDTFSKISAPLTTLPPPRLPSIQFPRSEMAEPTVTDLRNRPLDHIDTLADAASSVTNNQNFSNERNAIDIGRKSTTISNLLNNSDRSMKSSFQSASRHEAQLEDTPSMNNIVVQEIKPNITTPRSSSISALLNPVNGNGQSNPDGRPLLPFQHAISQGTPTFPLPAPRTSPISRAPPKFNFSNDPLAALAAVASAPDAMSSFLSKKENNN | failed
3 | YRSKGEYHELLANHVAELSKLQNVLYADNRYAILLIFQAMDAAGKDSAIKHVMSGVNPQGCQVYSFKHPSATELEHDFLWRTNCVLPERGRIGIFNRSYYEEVLVVRVHPEILEMQNIPHNLAHNGKVWDHRYRSIVSHEQHLHCNGTRIVKFYLHLSKEEQRKRFLERIDDPNKNWKFSTADLEERKFWDQYMEAYESCLQETSTKDSPWFAVPADDKKNARLIVSRIVLDTLESLNLKYP | failed
4 | MSLEPLDVDAEGVAAATKARGFRPKHLVTGPSRDDKSFLGHPGGLPWMLQVEMWERFSWYGMRAILVYFITDTLAHGGLGLPINAGQVVMASYGAAVLLMTIPGGIFADRILGPWMSTLCGGLIIMTGHVILAIPQVVTSWIGLICIAIGTGFIKPNLSTVVGGLYDDGDPRRDQGFLYFYMSINIGSLFAPIVTGLLKDHYGYHVGFIAAAIGMALGLIAFFHGRSKLREFAFDIPNPLAPGEGRRMVLRALGIAVVGAVLAIGFKALLGEWTSAIAYALFAFASVTALSYFLTMFRSPKVSDRERGHLWAFVPLWVGQVLFTMIFEQAAGKMPTFAKDNTDGHIVGSWSVEPEQYQTINPAAVLILAGLLGMWFRRREGKFPNTPQKFAISVFIIGITALIMGFGFRSWPGGNRLAPWWFLAVVFVIQTVAELFMNPIGLSTATKLAPKKFASQNMTLWLLASACGQGLASVTIERTKNLGDVVFYYSLGIVTILVAVVLFVIAPWTQAKMKDVDSVAEEGDA | failed
5 | MLYLNFPSVSIRLFASDESNTLKRWPVFPRSLRQLVMLAFLLILLPLLVLAWQAWQSLNALSDQAALVNRTTLIDARRSEAMTNAALEMERSYRQYCVLDDPTLAKVYQSQRKRYSEMLDAHAGVLPDDKLYQALRQDLNNLAQLQCNNSGPDAAAAARLEAFASANTEMVQATRTVVFSRGQQLQREIAERGQYFGWQSLVLFLVSLVMVLLFTRMIIGPVKNIERMINRLGEGRSLGNSVSFSGPSELRSVGQRILWLSERLSWLESQRHQFLRHLSHELKTPLASMREGTELLADQVVGPLTPEQKEVVSILDSSSRNLQKLIEQLLDYNRKQADSAVELDNVELAPLVETVVSAHSLPARAKMMHTDVDLKATACLAEPMLLMSVLDNLYSNAVHYGAESGNICLRSSLHGARVYIDVINTGTPIPQEERAMIFEPFFQGSHQRKGAVKGSGLGLSIARDCIRRMQGELYLVDESGQDVCFRIELPSSKNTK | failed
6 | MLRPAGLWRLCRRPWAARVPAENLGRREVTSGVSPRGSTSPRTLNIFDRDLKRKQKNWAARQPEPTKFDYLKEEVGSRIADRVYDIPRNFPLALDLGCGRGYIAQYLNKETIGKFFQAAIAENALKNSSETEIPTVSVLADEEFLPFKENTFDLVVSSLSLHWVNDLPRALEQIHYILKPDGVFIGAMFGGDTLYELRCSLQLAETEREGGFSPHISPFTAVNDLGHLLGRAGFNTLTVDTDEIQVNYPGMFELMEDLQGMGESNCAWNRKALLHRDTMLAAAAVYREMYRNEDGSVPATYQIYYMIGWKYHESQARPAERGSATVSFGELGKINNLMPPGKKSQ | failed
7 | MTQMRMPTSPTRPATAWPLYALPSPGEAIRQFTPNWFAVTMGTGILSLVLGQLPWPVPGAALLGAGLWRCNVGLFVVFSALYLARWALYPHEARRILAHPTASMFLGTIPMGLATLINGLLLYGLPRWGAAVIPVATALWWMDAAMALACGVLVPYLMFTRQQHRMEQMTALWLLPVVAAEVAAASAGALAPHLADAGSRFGMLVAGYVLWAYSVPVALGILVILWLRMALHQLPQASMAASSWLALGPIGTGALGMLVFAGDAPALFAAHGMGTIGQAAAGCGLIAGLLLWGLGLWWLALAILITARYFADKVPFNLGWWGFTFPLGVYALATLKLGAALQMQVFDVVGSVLVLLLCVTWTIVAARTAAGAYRGTLFVAPCLVESSEHAPAR | failed
8 | MKEEAVRVIEEVLKQGRTAMVEYEAKQVLKAYGLPVPEEKLAKTLDEALEYAKEIGYPVVLKLMSPQILHKSDAKVVMLNIKNEEELKKKWEEIHENAKKYRPDAEILGVLVAPMLKPGREVIIGVTEDPQFGHAIMFGLGGIFVEILKDVTFRLVPITEKDARKMIQEIKAYPILAGARGEEPADIDAIVDMLLKVSKLVDDLKDYIKEMDLNPVFVYNKGEGAVIVDSRIILKPKD | not failed
9 | MEQSVPARGTSPARRLATAARHCLVLAVASILAACTTITAVTPNEPEQRLVWPGPPLQPRIEWVREVYNQKGLGVSPGFWGRIARFVLGEKEERFIRPHGILADEQIFALVDSGAGRVHLIDLKRGTYRLLPEEGKTPMVSPIGIARDSRGAIYVTDSGTGLIHRFSDDGDSFVALDLRPLHRPTGIAFNPVTGLLYVAETGAHRIVAFDSAGKETLRIGGSGMEPGAFNFPTDLAVMADGRLLVTDSLNSRIQIFTADGKPAGSFGEAGDTPGRFTRPKGVAVDSEGHIYVCDSQQDMVQIFDETGRLLLAFGDKGSLPGQFWMPSGIHIANDMIYVSDTYNQRVQVFRYLKEEPWGQDPHTPD | failed
10 | MIYWLSLASAAFIGLAALVWKMSAIARENRVLKAEFSLGRLKKELNVFFISDIHRRTVSEDIICEVKERGVQLVIIGGDLAEGGVPYTRIEENIKRLSSLGKTYFVWGNNDYEVDQERLLEIFKTYGVTPLRNASVLHDHQGQTVNICGVDDIRLELDDYPAALGGVQPGFPTVLVSHNPEIHHQIQEADGIDLILSGHTHGGQIRFGRFGLCEIGGTGTVFKAPYLISNGYGTSKLPLRLGARPETHLINLVPGPRMEGN | failed
11 | MITYHSNALQSERQMYVWTPPGYTGMGEPLPVLYFYHGFGDTGRSAIDQGRIPQIMDNLLAEGKIKPMLVVIPDTETDAKGIIPEDFVPQERRKVFYPLNAKAADRELMNDIIPLISKRFSVRKDADGRALAGLSQGGYQALVSGMNHLESFGWLATFSGVTTTTVPDEGVAARLNDPAAINQQLRNFTVVVGDKDVVTGKDIAGLKTELEQKKIKFDYQEYPGLNHEMDVWRPAYAAFVQKFKIRHLEHHHHHH | failed
12 | MPGKREMQKCSLITVLSLSVLMLAGCTTTYTMTTRTGEIIETQGKPEVDTATGMTKYADVYGYHRVMKTSEIVQTTEGASKLDWLEHHHHHH | not failed
